Reference: the supplement of paper PMC7877785
± gives the uncertainty stated by the source.

Experiment: self-splicing fitness, log relative to wild type (ln ratio); higher = more splicing; Tetrahymena group I intron in knt gene, E. coli kanamycin selection, DiMSum; sequences stand for … in CUCUCU…GGAGGGAAAAGUUAUCAGGCAUGCACCUGGUAGCUAGUCUUUAAACCAAUAGAUUGCAUCGGUUUAAAAGGCAAGACCGUCAAAUUGCGGGAAAGGGGUCAACAGCCGUUCAGUACCAAGUCUCAGGGGAAACUUUGAGAUGGCCUUGCAAAGGGUAUGGUAAUAAGCUGACGGACAUGGUCCUAACCACGCAGCCAAGUCCUAAGUCAACAGAUCUUCUGUUGAUAUGGAUGCAGUUCACAGACUAAAUGUCGGUCGGGGAAGAUGUAUUCUUCUCAUAAGAUAUAGUCGGACCUCUCCUUAAUGGGAGCUAGCGGAUGAAGUGAUGCAACACUGGAGCCGCUGGGAACUAAUUUGUAUGCGAAAGUAUAUUGAUUAGUUUUGGAGUACUCGUGGUCG
Summary of the method: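 Fitness was computed with DiMSum as the error-weighted combination of replicate fold changes, kanamycin versus none, each normalised to wild type. The library randomised all eight intron nucleotides of the P1ex region, with the intron placed in the knt kanamycin-resistance gene on pET-22b(+) in E. coli BL21(DE3). Six replicate transformations were grown overnight at 37°C or 30°C on LB agar with or without 25 μg/mL kanamycin, plus 100 μg/mL carbenicillin, 50 μM IPTG and 0.2% rhamnose. Pooled colonies were amplicon-sequenced on an Illumina HiSeq 2500.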

Sequence	self-splicing fitness (ln) (30 °C)	self-splicing fitness (ln) (37 °C)
AACGAGCAAUAUUACGUAUU	-3.1 ± 0.16	-1.85 ± 0.14
AACGAGCAAUAUUACGUCCG	–	-2.07 ± 0.29
AACGAGCAAUAUUACGUCGA	–	-2.06 ± 0.21
AACGAGCAAUAUUACGUGAA	-3.48 ± 0.19	-3.65 ± 0.24
AACGAGCAAUAUUACGUUGC	-4.01 ± 0.18	-3.16 ± 0.19
AACGAGCAAUAUUACGUUUC	-3.05 ± 0.19	-2.42 ± 0.19
AACUAGCAAUAUUACGAAGC	-2.35 ± 0.4	-0.29 ± 0.35
AACUAGCAAUAUUACGAAGU	-3.67 ± 0.3	-2 ± 0.13
AACUAGCAAUAUUACGAGAC	-1.96 ± 0.44	–
AACUAGCAAUAUUACGAGAG	-3.61 ± 0.12	-1.84 ± 0.11
AACUAGCAAUAUUACGAGCG	-0.883 ± 0.089	-0.592 ± 0.098
AACUAGCAAUAUUACGCAAA	-2.38 ± 0.13	-1.72 ± 0.1
AACUAGCAAUAUUACGCAAU	-2.35 ± 0.13	-2.15 ± 0.16
AACUAGCAAUAUUACGCACA	-0.559 ± 0.061	0.145 ± 0.077
AACUAGCAAUAUUACGCUAA	-2.06 ± 0.11	-1.51 ± 0.12
AACUAGCAAUAUUACGCUGU	-3.41 ± 0.16	-3.84 ± 0.32
AACUAGCAAUAUUACGGAAC	-2.99 ± 0.21	-2.08 ± 0.3
AACUAGCAAUAUUACGGACU	-1.36 ± 0.24	0.037 ± 0.28
AACUAGCAAUAUUACGGCAG	-1.09 ± 0.094	-0.755 ± 0.095
AACUAGCAAUAUUACGGCCC	-1.6 ± 0.17	-0.325 ± 0.24
AACUAGCAAUAUUACGGGCU	-1.29 ± 0.11	-1.19 ± 0.16
AACUAGCAAUAUUACGGUAU	-1.31 ± 0.072	-0.479 ± 0.092
AACUAGCAAUAUUACGGUUA	-0.722 ± 0.084	-0.482 ± 0.083
AACUAGCAAUAUUACGUACC	-1.14 ± 0.1	-0.0487 ± 0.14

Sequence	self-splicing fitness (ln) (30 °C)	self-splicing fitness (ln) (37 °C)
AACUAGCAAUAUUACGUAUG	-3.11 ± 0.11	-1.22 ± 0.11
AACUAGCAAUAUUACGUGCA	-0.72 ± 0.054	-0.578 ± 0.065
AACUAGCAAUAUUACGUGGA	-2.28 ± 0.11	-1.61 ± 0.1
AACUAGCAAUAUUACGUUAU	-2.63 ± 0.11	-1.75 ± 0.12
AACUAGCAAUAUUACGUUGA	-1.52 ± 0.11	-1.04 ± 0.12
AAGAAGCAAUAUUACGAAAC	-1.82 ± 0.17	-0.859 ± 0.15
AAGAAGCAAUAUUACGAAAG	-3.5 ± 0.21	-1.69 ± 0.13
AAGAAGCAAUAUUACGACGU	-0.168 ± 0.068	0.298 ± 0.1
AAGAAGCAAUAUUACGAGAG	-4.49 ± 0.36	-2.41 ± 0.2
AAGAAGCAAUAUUACGAGUG	-2.04 ± 0.12	-1.23 ± 0.13
AAGAAGCAAUAUUACGAUGA	-0.962 ± 0.096	-0.249 ± 0.09
AAGAAGCAAUAUUACGAUUA	-0.809 ± 0.11	0.095 ± 0.11
AAGAAGCAAUAUUACGCACU	-0.114 ± 0.063	-0.103 ± 0.081
AAGAAGCAAUAUUACGCCAA	-2.24 ± 0.25	-1.04 ± 0.21
AAGAAGCAAUAUUACGCCCC	-0.875 ± 0.12	-0.358 ± 0.17
AAGAAGCAAUAUUACGCCUU	-3.53 ± 0.4	-2.17 ± 0.33
AAGAAGCAAUAUUACGCUAG	-2.36 ± 0.14	-0.458 ± 0.13
AAGAAGCAAUAUUACGCUCU	-3.54 ± 0.24	-1.37 ± 0.18
AAGAAGCAAUAUUACGCUGA	-2.47 ± 0.14	-2.04 ± 0.18
AAGAAGCAAUAUUACGGAGA	-3.38 ± 0.19	-2.62 ± 0.2
AAGAAGCAAUAUUACGGCAC	-0.764 ± 0.08	-0.298 ± 0.12
AAGAAGCAAUAUUACGGCAU	0.143 ± 0.12	-0.43 ± 0.16
AAGAAGCAAUAUUACGGCCC	-0.651 ± 0.13	-0.518 ± 0.16
AAGAAGCAAUAUUACGGGAA	-1.79 ± 0.14	-1.85 ± 0.13
